Test results as given in patent US20230183177A1, “ENANTIOSELECTIVE CHEMO-ENZYMATIC SYNTHESIS OF OPTICALLY ACTIVE AMINO AMIDE COMPOUNDS” (priority 2020, published 2023).

Assays:
[1] = Biocatalytic conversions with target substrate rac-1 by NHase-CFE or cells, chiral HPLC analysis; format: biochemical; settings: for conversion / e.e. for (S): bioconversion of 100 mM rac-1; for conversion [%]: 300 rpm overnight; for eeP [%]: excess of (S); for Conv. [%]: NHase-CFE, overnight
[2] = Substrate stability experiments: decomposition of rac-1 at different pH (Feigl-Anger paper, HPLC); format: physicochemical
Procedure: . In addition, the substrate was dissolved in ethanol as control. 100 μL of the rac-1 solutions were pipetted into a 96-well micro titer plate and covered with Feigl-Anger filter paper. Color development was documented by taking pictures (see FIG. 3).
To investigate the velocity of rac-1 decomposition at different pH, rac-1 was dissolved in different buffer, ranging from pH 5 to pH 10, and extracted immediately, after 2 and after 60 min, respectively, with 1 volume ethyl acetate. Extracts were dried over Na2SO4 and the supernatant evaporated using a vacuum centrifuge. The remaining substances (including rac-1) were dissolved in 100 μL of ethanol.
(R)- and (S)-1 were separated by a Chiralpak AD-H using n-heptane and ethanol in a ratio 90:10 as the mobile phase, at a flow rate of 1 mL/min for 8 min. The compounds were detected at 210 nm (DAD). Retention times of (R)- and (S)-1 were 4.2 min and 4.7 min, respectively.

## CCC(C#N)N1CCCC1 (racemic) [rac-1, 2-(Pyrrolidin-1-yl)butanenitrile]
[1]
  conversion: 29.3%
  e.e. for (S): 92.8%
[2]; pH 5, 2 min
  Percent (HPLC peak area vs zero value): 57%
[2]; pH 5, 1 hour
  Percent (HPLC peak area vs zero value): 32%
[2]; pH 6, 2 min
  Percent (HPLC peak area vs zero value): 54%
[2]; pH 6, 1 hour
  Percent (HPLC peak area vs zero value): 23%
[2]; pH 6.5, 2 min
  Percent (HPLC peak area vs zero value): 47%
[2]; pH 6.5, 1 hour
  Percent (HPLC peak area vs zero value): 22%
[2]; pH 7, 2 min
  Percent (HPLC peak area vs zero value): 57%
[2]; pH 7, 1 hour
  Percent (HPLC peak area vs zero value): 44%
[2]; pH 7.5, 2 min
  Percent (HPLC peak area vs zero value): 66%
[2]; pH 7.5, 1 hour
  Percent (HPLC peak area vs zero value): 50%
[2]; pH 9, 2 min
  Percent (HPLC peak area vs zero value): 83%
[2]; pH 9, 1 hour
  Percent (HPLC peak area vs zero value): 87%
[2]; pH 10, 2 min
  Percent (HPLC peak area vs zero value): 78%
[2]; pH 10, 1 hour
  Percent (HPLC peak area vs zero value): 86%

## CC[C@@H](C(N)=O)N1CCCC1=O [compound 4, (S)-2-(2-oxopyrrolidin-1-yl)butane amide, reference compound]
[1]
  conversion: 51.8%
  e.e. for (S): 92.1%

B1: KoNHase: nitrile hydratase from Klebsiella oxytoca (protein, listed as Klebsiella oxytoca)
alpha: MSHKHDHDHTHPPVDIELRVRALESLLQEKGLIDPAALDELIDTYEHKVGPRNGAQVVARAWSDPEYKRRLMENATAAIAELGFSGIQGEDMLVVENTPDVHNVTVCTLCSCYPWPVLGLPPVWYKSAPYRSRIVIDPRGVLAEFGLHIPENKEIRVWDSSAELRYLVLPERPAGTEGWSEAQLSELITRDSMIGTGVVSAP
beta: MNGIHDLGGMHGLGPIPTEENEPYFHHEWERRVFPLFASLFVGGHFNVDEFRHAIERMAPTEYLQSSYYEHWLHAFETLLLAKGAITVEELWGGAKPAPCKPGTPVLTQEMVSMVVSTGGSARVSHDVAPRFRVGDWVRTKNFNPTTHTRLPRYARDKVGRIEIAHGVFITPDTAAHGLGEHPQHVYSVSFTAQALWGEPRPDKVFIDLWDDYLEEA
[1]
  enantioselectivity for (S)-2: 78%
[1]; Table 4: 10 mM rac-1, NHase-CFE, 500 μL, pH 7.2, 25° C.
  conversion [%]: 5.3%
[1]; Table 5: 10 mM rac-1, NHase-CFE, pH 7.2, 37° C.
  conversion [%]: 4.4%
[1]; Table 5: 10 mM rac-1, NHase-CFE, pH 7.2, 50° C.
  conversion [%]: 3.8%
[1]; Table 5: 37° C., —^a: only (S)-amide was detected
  eeP [%]: 83 (S) %
[1]; Table 5: 50° C., —^a: only (S)-amide was detected
  eeP [%]: 78 (S) %
[1]; Table 6: 10 mM substrate, 25° C., pH 7.2
  Conv. [%]: 5.3%
[1]; Table 6: 10 mM substrate
  eeP [%]: 79 (S) %
[1]; Table 6: 50 mM substrate, 25° C., pH 7.2
  Conv. [%]: 6.2%
[1]; Table 6: 50 mM substrate
  eeP [%]: 79 (S) %
[1]; Table 6: 100 mM substrate, 25° C., pH 7.2
  Conv. [%]: 2.6%
[1]; Table 6: 100 mM substrate
  eeP [%]: 75 (S) %
[1]; pH 7.2
  Enantioselectivity eeP [%]: 79 (S) %
[1]; time study: 20 mM substrate, CFE, 25° C., pH 7.2
  enantiomeric excess of the product for (S)-2: 81%
1 or 2 mM CoCl2, 2 h, 25° C.
  activity after cobalt pre-incubation: lower activity than the control reaction
NHase-CFE, 114 mM substrate, pH 7.2, 25° C.
  activity towards methacrylonitrile (MAN) hydrolysis: high activity
Incubated at pH 9 or 9.5, 25° C., then MAN assay
  stability after longer incubation at high pH: loses activity with time at pH 9.5
Methacrylonitrile hydration, carbonate buffer pH 10
  activity at high pH: still active at pH 10
pH 8
  thermal stability at 37° C.: seem stable
